The values below come from the DeepSol protein solubility set.

The nature of the data set: soluble on expression in E. coli; label from the status in PepcDB or PDB records.
As to “MQDADKLPHTKVTLVAPPQVHPHEQATKSGPKVVEFTMTIEEKKMVIDDKGTTLQAMTFNGSMPGPTLVVHEGDYVQLTLVNPATNAMPHNVDFHGATGALGGAKLTNVNPGEQATLRFKADRSGTFVYHCAPEGMVPWHVVSGMSGTLMVLPRDGLKDPQGKPLHYDRAYTIGEFDLYIPKGPDGKYKDYATLAESYGDTVQVMRTLTPSHIVFNGKVGALTGANALTAKVGETVLLIHSQANRDTRPHLIGGHGDWVWETGKFANPPQRDLETWFIRGGSAGAALYTFKQPGVYAYLNHNLIEAFELGAAGHIKVEGKWNDDLMKQIKAPAPIPR”, the “soluble on expression in E. coli” value is reported as “soluble”.
“MQDEYYMARALKLAQRGRFTTHPNPNVGCVIVKDGEIVGEGYHQRAGEPHAEVHALRMAGEKAKGATAYVTLEPCSHHGRTPPCCDALIAAGVARVVASMQDPNPQVAGRGLYRLQQAGIDVSHGLMMSEAEQLNKGFLKRMRTGFPYIQLKLGASLDGRTAMASGESQWITSPQARRDVQLLRAQSHAILTSSATVLADDPALTVRWSELDEQTQALYPQQNLRQPIRIVIDSQNRVTPVHRIVQQPGETWFARTQEDSREWPETVRTLLIPEHKGHLDLVVLMMQLGKQQINSIWVEAGPTLAGALLQAGLVDELIVYIAPKLLGSDARGLCTLPGLEKLADAPQFKFKEIRHVGPDVCLHLVGA”: the “soluble on expression in E. coli” value is recorded as “soluble”.
The same measure for “MQDFDFSFNPKACEGCGAKCCVGESGYIFLNIQEMQQISAFLKLELEEFSQKYVKKVGYKFSLLEKDAKELGLACVFLDLETKKCQIYSVRPKQCQTFPFWEGVKTFSKEQKEAFCQSCPGITQKTKETKVRLEHHHHHH”: “not soluble”; for “MQDLSAVKAFHALCQHKSLTAAAKALEQPKSTLSRRLAQLEEDLGQSLLMRQGNRLTLTKAGEVFAVYSEQLLELANKSQEALQELNNQVTGELTLVVHPNLIRGWLSQVLDEFMQQHSTLKIRLLSQFQHSDEVFEPDLIIWIEHAAPMGYRKERLGYWRYAAYASPKYLAHRDKPTHPRELIHHPWIDFIACRRAELELHHPEFGSYSLPALESRLQSDNLAMQADAIAKGRGIGLLPTWFANGFETAHPGSLIPCVNGWQSQPTEINCFYPLGRHPLRLRLFIDALRQARPDEWQ”: “not soluble”.
Under “MQESAQFFNDTGVSMSMQGFHNEAIACLKKGLALEPDNSLMWLNLGLSYYAAKRQNDSKFALFQSLKYNPYEADAWDSLGLVLFETGDIDQAERAFESAIKLEPENGRVWNNYGTVLFNKENYRAARRAFESAVTLDPEMGDAVFNLRDTYLELGMNDLAERCNKILKEMDYQE” stands “not soluble”; under “MQEVPPDFEDVHIAEARVDVPSTWRDQIVNTNAVATETHPLKCAEVETQTGSKDNQGTQTDDAGGGRPPSPSKVQASGVADFMAKVEGMVAGELVKATEEHEVLEPFTRAADDEQEPATCIHYLSPFQQDAAANQDLNAT”, “soluble”; under “MQFTDGGKEVELRLRLKTGEILSPKDISVDADGTSLAVKEKRNGLLITLLETNHLFEKIMPSETIWYIDEDQLVVNMKKVDGELKWPDIVESWESLTAGMMQLLKGASIYIVGDSTEINQKVSRELAVGLGYSPLDSKELLESFSKQTIDSWILAEGPDSVAEAESSVLESLSSHVRTVVSTLGGKHGAAGRADQWRHLYSGFTVWVSQTEATDEESAKEEARRSKQEREIGYSNADVVVKLQGWDPTHAKSVAQASLSALKQLIISDKGLPGNK”, “not soluble”.
Under “MQGKALQDFVIDKIDDLKGQDIIALDVQGKSSITDCMIICTGTSSRHVMSIADHVVQESRAAGLLPLGVEGENSADWIVVDLGDVIVHVMQEESRRLYELEKLWS” stands “soluble”; under “MQGTRVMHIFVLSKRKITMNVDNVKSQMRKGMLEYCIMLLLHKEPAYASDIIQKLKEAQLIVVEGTLYPLLTRLKNDDLLSYEWVESTQGPPRKYYKLTEKGEAFLGELEISWKELNETVNHIASR”, “not soluble”.
Turning to “MQGVLAGLPSGIPGIGLEIEGAVQHAPQPGRHSIRCSLKVNHRIDERAQYHLFCTSKSANTTCPKGPSRVLCRDIFDIFDYRNFSMPRANEIKKGMVLNYNGKLLLAKDIDIQSPTARGAATLYKMRFSDVRTGLKVEERFKGDDIVDTVTLTRRYVDFSYVDGNEYVFMDKEDYTPYTFTKDQIEEELLFMPEGGMPDMQVLTWDGQLLALELPQTVDLEIVETAPGIKGASASARNKPATLSTGLVIQVPEYLSPGEKIRIHIEERRYMGRAD”, the “soluble on expression in E. coli” value is on record as “not soluble”.
For the sequence “MQIIRRLMFVVALICPLITQAEPQVAKLYQRELTRNSYAIGGLNAPVALFAAQVHQESQWNVTALSHVGAQGLAQFMPQTANWIATQYPELKTNQPFNPSWALRALVRYDYWLYQRIHAVTDCDRWAFALSAYNGGLGWVQRDKRKARIQGLDPMSYWHAVESVNSGRSRANFIENRGYPKRIIYRWQPLYLHWGNSVCLDD”, the “soluble on expression in E. coli” value is “not soluble”.
Turning to “MQIITTTFIQKVILGSHQLHEQLSIVEARMIESAIVSMLTESFCENEQTLKYLARLLSPMSYMDVINARRGKKICGYPLCYKSAAENSSDGFFIHSMYCNNYHSKCSLYLMRQLSQTPLHERRGVHLTSYINLEFDDMYSVSLLEELVGSEVPIDTVKSLITSFKDLEFDDTYKNEPLPLDVYFGQLTTDEETCIE”, the “soluble on expression in E. coli” value is “not soluble”.
The same measure for “MQIYLSTLTELDYDKSLNSIEESFDDNPETSWQARAKVKHLRKSPCYNFELEVIAKNENNDVVGHVLLIEVEINSDDKTYYGLAIASLSVHPELRGQKLGRGLVQAVEERAKAQEYSTVVVDHCFDYFEKLGYQNAAEHDIKLEFGDAPLLVKYLWDNLTDAPHGIVKFPEHFY”: “not soluble”.
Under “MQKEFFQELQDILYEKNITIKFHSFQNFYEDFKSHKFIFNHEHQSIFKKNTSQQITLFHPTRIRRPKFLNSTHALAKIIHSVAHIEFNAINLALDASYRFKNLPLQFYYDWLEVADEEIKHFKLLNSALEELGYKYGDFPVHDNLESALEATKDSLSFRMGIVHRGLEAKGLDANPFVVQKLQSSNHSIKNLLMEYLEIILNDEIKHVKKGDTWWKFANQNKYNFIELCKTFKQFSLAGKKLNIQARIKAGFTQEECEVIEKFYSLEHHHHHH” stands “not soluble”.
Regarding “MQKGVYIMNSTSSIITIGREYGSGGRQIGQEVAKYFGIKCYDKELLEHAANDSGICKELFEHHDEKPTNSFLYSLVMDTYSFGYSSSGFSDMPMNHKIFLAQFDAIKKLAGEGPCVMVGRCADYALADWNDCFSIFVHADLDWRINRIASKHGKTPKEAKDMITKTDKSRASYYNYYTNKKWGAARSYNLCIDSGKLGIDYATEAIIESIKIFDRTKISK”, the “soluble on expression in E. coli” value is listed as “not soluble”.
In the case of “MQKKYYEDSHQDSYLLGVKEKDEVLLTALMRKIKNHTGDVYEIMGGPLVDFENENNNQIIAFFLKELHKYLKKQHAYYLRIVPNEKTQRVENNGKVVNYDLKNYSSLYFAEGFIYRSFEQVGYGFATPHYEYQKRIEGLNKKTLFQSYSKKTQYSIKKTYEFGITTRNISYDELEMFHENTTKTAKRLGFYDKELSYYQSVYRTFGDNAKFMIAEINLSDYIGHFQEIIRNLKDKIDQMILIDSKREKPTKTRQIKELRSQVEQHEKRIVQAKKLIEQYGKKINLAGALFFIQPQEVSYMFSYTNAEFKNFYGPYRTQADMLEFALKEKVPVYNFYGVSGDRSGHDGVYEFKKGFQGYMVDNMGAFILPINKFRYQFLQTIKKIIRRR”, the “soluble on expression in E. coli” value is recorded as “not soluble”.
The same measure for “MQKMDCQAIGYGYIIIPKALLKEQLIDCSPHEGEIEAFLKLLVKVNYSETKLTDHQRRTIVCKRGESLHSYRSWSAIFHWPTSRTYRFIQQLKTNGIIEIIPHNDTTALHIRVVNYENWTNISALLNEKKENTQKASNEKFRLFWDDYHNILQLPKENIAKAQRIWKKLSEKEQQLAIDHIEEYYYHQTNMKFTLHACSYLSNKAFLNEYEY”: “not soluble”.
Under “MQKQLLLGVEAIAQAALDAGISGVYAYPGTPSTEITEHIQNSRMAKERNVHREWAANEKTAMESALGMSYAGKRALVCMKHVGMNVAADCFMNAAITGANGGMVIVAADDPSMHSSQNEQDSRVYGQFAMIPVMEPSNQQEAYDMTRLAFDLSERLGTPVMMRITTRLAHSRAGVVQTEPIGENELHLP” stands “not soluble”.
